In patent US12668821B2, “Enzymatic production of glucaric acid from glucuronic acid” (THE GOVERNING COUNCIL OF THE UNIVERSITY OF TORONTO, priority 2019, dated 2026):
Where two headings read alike, the source gives them in different places.

B1: AxyAgu115A: GH115 α-glucuronidase from Amphibacillus xylanus, SEQ ID NO: 4 (protein, listed as Amphibacillus xylanus)
chain: MDFTLNQEMLMTDTKSGALFYQEEEALSGVRKIANKVMHDVELVFGYQPEATKDRDMLSRHAVLYGTVGHSPLLDELNKKELIDLTEIAGKREVFLFQVVDQPIQGVEKALVIAGSDKRGTIYGLFHLSEKLGVSPLVDWSGVLPARKESFSLKGDYKYVSKEPSVKYRGFFINDEWPAFGNWSAKNFGGFNAEMYDHVFELLLRLKGNYLWPAMWSARFNDDGPGLANVELADEYGVIMGASHHEPCLRYGEEYKYLRGPDSIYGDAWNFITNREGITKFWEDGLKRTGHFENIITIGMRGEADTKIMGEDATLEDNINLLRDVIQTQNKLIKEHVNPNLKEVPRMLALYKEVEPFFYGDENTPGLINSEELEDVILMLCDDNHGNLRTLPTEDMRKHSGGYGMYYHFDYHGGPVSYEWINSSYLPKIWEQMTMAYDFGVRDLWIVNVGDIATQELPLSFFLDLAYDFDKWGTNAINKTDDYTKQWIEQQFAGVFNLEQKDKVFELLNGYTKIAHNRRPEAMNVDVYHPVNYHETDQLLDRIDHLLGLAEELYQEVDQQHFTAYFALVYYPTVGNLNLQKMWLLNGKNKYAAQLNLIEANKLAEQVKACLKRDQEIVDEYHTIADGKFYGMGLSEHIGFVHWNEDENKNPVLSYVLPVNKPRLLVSIDGTELRSEGSPWHVNTLPLVDFLEPDVNQASFTISSVSEKKAEYHISTDQDWLSCSAANGVLDGKNKLSETIHVFVDRDGLADQAEGRITVKTPVGKVTIVVPVVNNDFTNYPDMTFVDTKGYISIEAEHFATQKATENLDGTLNRFEVLDGYGKTLSAIKAFPTDTHYQVGKDAPFVEYHFVTQEAGVYELEFYLQPSNPVTREGTMYAGIQVNENDVDVINVLPDGYHVDGPHWGIDVINNIRTTKTKITCEQGLNKLRIYAVSPGFALEKIVIYPDGKKLANSYLGPNETYYVGR
B2: Y300A: GOOX variant with Y300A relative to SEQ ID NO: 1 (protein, listed as Sarocladium strictum)
chain: NSINACLAAADVEFHEEDSEGWEMDGTAFNLRVDYDPVAIAIPRSTEDIAAAVQCGLDAGVQISAKGGGHSYGSYGFGGEDGHLMLELDRMYRVSVDDDNVATIQGGARLGYTALELLDQGNRALTHGTCPAVGIGGHVLGGGYGFATHTHGLTLDWLVGATVVLADASIVHVSKTENADLFWALRGGGGGFAIVSEFEFNTFEAPEIITTYQVTTTWNRKQHVAGLKALQDWAENTMPRELSMRLEINANALNWEGNYFGNAKDLKKVLQPIMKKAGGKSTISKLVETDWYGQINTYLAGADLNITYNYDVHEYFYANSLTAPRLSDEAISAFVDYKFDNSSVRPGRGWWIQWDFHGGKNSALASHSNDETAYAHRDQLWLWQFYDNIYDYENNTSPYPESGFEFMQGFVATIEDTLPEDRKGKYFNYADTTLDKEEAQKLYWRGNLEKLQAIKAKYDPEDVFGNVVSVEPIA
modifications: (1)..(206) FAD-binding domain; (207)..(474) substrate-binding domain

Assays:
[1] = H2O2 inhibition assay of AxyAgu115A on glucuronoxylan; assay type: biochemical, beechwood
Experimental: FIG. 10: HPAEC-PAD analyses of H2O2 effects on AxyAgu115A activity and MeGlcA degradation.
AxyAgu115A (10 μg/mL) was incubated with 1% glucuronoxylan in 50 mM Tris buffer pH 8.0 in the presence of various H2O2 concentrations (0.01-100 mM). MeGlcA (1 mM) was also incubated with the same H2O2 concentrations. The reactions were kept in the dark at 40° C. for 16 h in a thermomixer (Eppendorf, USA). Catalase (200 μg/mL) was then added, and the reactions were kept incubating for another 30 min to remove H2O2 before HPAEC-PAD analysis.
The MeGlcA concentration released by AxyAgu115A from 6% glucuronoxylan after 16 h was around the Km of GOOX-Y300A on this acidic sugar, supporting the usage of GOOX-Y300A and AxyAgu115 in a one-pot reaction. […] Thus, a one-pot sequential reaction was performed where GOOX-Y300A was added to the reaction after pre-hydrolysis of glucuronoxylan by AxyAgu115A for 4 h. Following 16 h of incubation with GOOX-Y300A, methyl glucaric acid yields were similar to those achieved using the two-pot sequential system described above (i.e., 60% yield as confirmed by LC-MS).

[2] = Release of MeGlcA from glucuronoxylan by AxyAgu115A (HPAEC-PAD); assay type: biochemical, beechwood; conditions: from 1.5 g glucuronoxylan, calculated on the MeGlcA standard curve
Experimental: Glucuronoxylan (6%) was incubated with AxyAgu115A (10 μg/mL) and GOOX-Y300A (10 μg/mL) in 100 mM Tris buffer pH 8.0 at 40° C. in a rotator oven for up to 72 h. The reactions were then vacuum-filtered using 96-well filter plates (0.22-μm PVDF membrane) (Millipore, USA) in a Tecan liquid handler (500 mbar) (Tecan Trading AG, Switzerland). Enzymatic products in the flow-through were confirmed by mass spectrometry and quantified by HPAEC-PAD analysis.
Reaction samples were vacuum-filtered using 0.22-μm, PVDF filter plates (Millipore, USA) with a Tecan liquid handler (500 mbar) (Tecan Trading AG, Switzerland). […] The presence of acidic sugars was detected using an ICS5000 HPAEC-PAD system (Dionex, USA) with a CarboPac PA1 (2×250 mm) analytical column (Dionex, USA). […] Chromatograms were analyzed using Chromeleon 7.2 (Dionex, USA).
AxyAgu115A was produced with high purity (FIG. 2). The treatment of glucuronoxylan with AxyAgu115A released only MeGlcA, as analyzed by HPAEC-PAD (FIG. 3), and no additional release of MeGlcA was seen after 16 h. […]
The concentration of MeGlcA released from 1.5 g glucuronoxylan was 21.6±1.2 mM, calculated by on the MeGlcA standard curve (FIG. 5) whereas the estimated molar concentration of MeGlcA, based on a previous analysis of glucuronoxylan composition (Teleman et al., 2002), was 24.4 mM. […]

[3] = Foumani et al., 2011; read-out: Km on glucose; cited from earlier work
[4] = Activity screening of GOOX variants and glucose oxidase on MeGlcA; assay type: biochemical
Experimental: (§1) FIG. 11: Activity screening of GOOX variants and glucose oxidase (GO) on GlcA and MeGlcA substrates. The enzymes (16 nM) were assayed at 37° C. with 10 mM GlcA and 1 mM MeGlcA in 100 mM Tris buffer pH 8.0 (for GOOX variants) or 50 mM sodium acetate pH 5.0 (for GO). The dotted line indicates the activity of GOOX-VN for MeGlcA for ease of comparison. “CtCBM22A-wtGOOX” and “CtCBM22A-Y300A” represent fusion proteins where the C terminus of the xylan-binding protein CtCBM22A (described in Vuong and Master, 2014) is fused to the N terminus GOOX.
(§2) The specific activity of GOOX-Y300A (16 nM) on MeGlcA and GlcA (1 mM) was measured in 50 mM Tris buffer pH 8.0 at 40° C. The amount of methyl glucaric acid was determined by measuring the release of H2O2 using a previously published colorimetric assay (Lin et al., 1991). The kinetics of GOOX-Y300A on these acidic sugars were measured at the same condition, but using up to 60 mM MeGlcA and GlcA and in 0.3 M Tris buffer pH 8.0.

[5] = MeGlcA oxidation by GOOX-Y300A, substrate consumption by HPAEC-PAD; assay type: biochemical; conditions: after 24 h, 300 mM Tris buffer, 60 mM MeGlcA, based on substrate consumption
From the text: Reaction samples were vacuum-filtered using 0.22-μm, PVDF filter plates (Millipore, USA) with a Tecan liquid handler (500 mbar) (Tecan Trading AG, Switzerland). The flow-through was collected to Nunc™ 96-well polypropylene microplates (Thermo Fisher Scientific, USA), and covered with Nunc™ 96-well silicone cap mats. The presence of acidic sugars was detected using an ICS5000 HPAEC-PAD system (Dionex, USA) with a CarboPac PA1 (2×250 mm) analytical column (Dionex, USA). The HPAEC-PAD samples were eluted at 0.25 mL/min using NaOAc gradient (0-0.5 M) in 0.1 M NaOH. Chromatograms were analyzed using Chromeleon 7.2 (Dionex, USA).
In an attempt to improve the oxidation of GOOX-Y300A, the ionic strength of the Tris buffer was increased to 300 mM and the concentration of MeGlcA was brought up to 60 mM, higher than its Km. NSI-MS confirmed an increase in the intensity ratio of methyl glucaric acid over MeGlcA (FIG. 9). […] Provided that a similar xylan source was used, the conversion yield reported from the 3-enzyme pathway by Lee et al. (2016) (Lee et al., 2016a) was estimated ca. 20%, as determined by measuring NADH absorbance at 340 nm.

[6] = Activity screening of GOOX variants and glucose oxidase on GlcA; assay type: biochemical; conditions: enzyme 16 nM, 37° C., 10 mM GlcA (FIG. 11 legend; b102 says 100 mM), 100 mM Tris pH 8.0 (GOOX variants) or 50 mM sodium acetate pH 5.0 (GO)
Experimental: as §1, §2

[7] = Kinetics of GOOX-Y300A on MeGlcA (H2O2 colorimetric assay); assay type: biochemical; conditions: up to 60 mM MeGlcA, 0.3 M Tris buffer pH 8.0, 40° C.
Experimental: as §2
There was a dose response for the production of methyl glucaric acid, as the relative abundance of methyl glucaric acid increased when the substrate concentration was raised from 1 mM to 10 mM.

[8] = 200 mM H2O2; cited from earlier work
[9] = 200 mM H2O2; cited from earlier work; remark: listed apart in the source

Row | Molecule | activity lost in the presence of H2O2 ([1]; 10 mM H2O2) | H2O2 concentration at which activity was inhibited ([1]; 1% glucuronoxylan, 50 mM Tris pH 8.0, 40° C., 16 h) | effect of higher H2O2 concentrations on MeGlcA released from glucuronoxylan ([1]; peak area, HPAEC-PAD, FIG. 10A) | concentration of MeGlcA released from glucuronoxylan [2] [mM] | Km [3] [mM] | specific activity on MeGlcA (in words) ([4]; among GOOX variants, FIG. 7) | nmol oxidized MeGlcA Mean ([4]; enzyme 16 nM, 37° C., 1 mM MeGlcA (FIG. 11 legend; b102 says 10 mM), 100 mM Tris pH 8.0 (GOOX variants) or 50 mM sodium acetate pH 5.0 (GO)) [nmol] | activity with MeGlcA as substrate (in words) ([4]; screening, compared with wtGOOX) | efficiency on MeGlcA oxidation [5] [%] | nmol oxidized GlcA Mean [6] [nmol] | Km [7] [mM] | kcat on MeGlcA [7] [min⁻¹] | activity retained on glucose [8] | activity retained on cellobiose [9] [%]
1 | B1 | approximately half of AxyAgu115A activity was lost | greater than 1 mM | lowered the amount of MeGlcA released | 21.6 ± 1.2 | – | – | – | – | – | – | – | – | – | –
2 | B2 | – | – | – | – | 8.1 | highest specific activity | 2.5 | improved activity over wtGOOX | 62 | -0.03566 | 21 ± 2 | 0.91 ± 0.06 | more than 50% | 100
